Assay results published in patent KR20230022334A (dated 2023).

Tests used:
[1] = target: T1, API5(Apoptosis inhibitor protein 5) 단백질, Expi293 세포에서 일시발현 후 정제 (human, UniProt Q9BZZ5-2 1-504); experiment: ELISA, 3F2 serially diluted 3.125-200 nM (8 points including 0 nM)
T1 construct: also called rhAPI5; AAC-11
T1 sequence: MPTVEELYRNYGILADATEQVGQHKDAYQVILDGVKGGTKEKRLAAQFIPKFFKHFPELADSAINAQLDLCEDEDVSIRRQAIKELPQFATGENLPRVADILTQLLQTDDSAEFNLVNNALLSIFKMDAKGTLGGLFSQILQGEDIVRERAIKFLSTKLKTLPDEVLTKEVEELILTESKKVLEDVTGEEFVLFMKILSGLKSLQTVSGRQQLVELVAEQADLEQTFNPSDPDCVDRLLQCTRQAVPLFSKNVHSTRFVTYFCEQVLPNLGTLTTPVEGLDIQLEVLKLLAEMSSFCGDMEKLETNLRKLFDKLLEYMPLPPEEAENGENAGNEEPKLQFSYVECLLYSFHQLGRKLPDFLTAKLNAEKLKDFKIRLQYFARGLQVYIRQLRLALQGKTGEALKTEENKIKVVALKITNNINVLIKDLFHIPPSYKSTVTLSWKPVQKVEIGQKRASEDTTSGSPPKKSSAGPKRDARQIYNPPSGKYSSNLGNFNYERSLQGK

[2] = target: T1, API5(Apoptosis inhibitor protein 5) …; experiment: SPR, Biacore T200, 3F2 serially diluted 3.125-100 nM (7 points including 0 nM)

B1: 3F2 항체 (API5 표적 인간 항체 3F2) (antibody, V domains shown)
VH: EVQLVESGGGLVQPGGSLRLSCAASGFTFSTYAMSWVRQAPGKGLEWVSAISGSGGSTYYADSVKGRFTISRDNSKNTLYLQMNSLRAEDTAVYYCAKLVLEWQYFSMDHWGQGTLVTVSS
VL: DIQMTQSPSSLSASVGDRVTITCRASQSISRYLNWYQQKPGKAPKLLIYAASTLQSGVPSRFSGSGSGTDFTLTISSLQPEDFATYYCQQSYSFPWTFGQGTKVEIK
notes: Purified 3F2 antibody as used in the ELISA and SPR; IgG is used as the control in later experiments; also called API5 항체 3F2; 3F2 antibody
For B1, the Kd [1] was 1.2 nM and the Kd [2] was 4.62 nM.
